Laboratory results: the supplement of paper PMC10567573
± gives the standard deviation.

Test: protein stability index of a GFP-peptide fusion (GPS, HEK-293T) (PSI 1-6); higher = more stable
[1] = treatment: DMSO, c terminus: a fixed tail appended
[2] = treatment: MLN4924 1 uM, 8 h, c terminus: a fixed tail appended
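Note: 24-mer peptide tiles fused after GFP, lentivirally expressed, FACS-sorted into six equal bins by GFP/DsRed ratio, decoded by Illumina sequencing, PSI is the read-weighted mean bin number.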

With WKERDEYITKVSEEVTRLGAQVKE [TRIM15] the protein stability index [1] was 4.69 ± 0.23 and the protein stability index [2] was 4.22 ± 0.42.
PLFSNWWIQVTSLRIFVWLLLLYF [PHTF1] showed a protein stability index [1] of 2.21 ± 0.22 and a protein stability index [2] of 2.5 ± 0.49.
Sequence RQVEKRRNSGPVVEKLKQMQEFFG [MMP1] has a protein stability index [1] of 3.04 ± 0.57 and a protein stability index [2] of 3.07 ± 0.14.
Sequence EKEKHVNQLQTKVAVLEQEIKDKD [SASS6] has a protein stability index [1] of 5.38 ± 0.12 and a protein stability index [2] of 5.53 ± 0.14.
Sequence YPALASKNGKKWEILNFNQYYEAC [ACSBG2] has a protein stability index [1] of 2.68 ± 0.26 and a protein stability index [2] of 2.81 ± 0.41.
With WLQKLCCPCCFGRDCLVLNQGYLS [PI4K2A] the protein stability index [1] was 2.4 ± 0.45 and the protein stability index [2] was 2 ± 0.24.
AADRHINFCKEQAARISNKGKFST [ZC2HC1A] gave a protein stability index [1] of 2.57 ± 0.28 and a protein stability index [2] of 2.85 ± 0.14.
TTALLHYQLPQMPDVVVRSFMTWL [MED27] showed a protein stability index [1] of 2.59 ± 0.32 and a protein stability index [2] of 2.62 ± 0.3.
Work on SSGPARGIAIVSVLVILISIVIFC [KCNA3] yielded a protein stability index [1] of 2.21 ± 0.21 and a protein stability index [2] of 2.21 ± 0.28.
LAAVLVEPKLHTPMYFFLGNLSVL [OR3A1] gave a protein stability index [1] of 3.56 ± 0.33 and a protein stability index [2] of 3.57 ± 0.57.
Work on SDPEISDVDEDEPGGLVGSADVVS [PPFIA4] yielded a protein stability index [1] of 5.54 ± 0.34 and a protein stability index [2] of 5.35 ± 0.45.
In the case of RKDFSELRSAGVEQLMYIKEDLII [FAM50A], the protein stability index [1] is reported as 2.24 ± 0.21 and the protein stability index [2] is reported as 2.13 ± 0.34.
QGELADQDVDPVHNLIEQVSLGLG [FBXO33] gave a protein stability index [1] of 4.55 ± 0.27 and a protein stability index [2] of 4.66 ± 0.072.
With LGPAFRGLKGRTLYPAVSAVWGQC [SPSB2] the protein stability index [1] was 2.17 ± 0.22 and the protein stability index [2] was 2.16 ± 0.18.
For VLALEERFGVRPKVTGYLISYSSM [MFSD9], the protein stability index [1] was 2.17 ± 0.53 and the protein stability index [2] was 1.95 ± 0.099.
Sequence ARLVFVPLLLLCNIKPRRYLTVVF [SLC29A1] has a protein stability index [1] of 2.92 ± 0.51 and a protein stability index [2] of 2.91 ± 0.87.
Work on NIGDSSSGLIQTVFISSYMVLAPV [SPNS1] yielded a protein stability index [1] of 3.12 ± 0.32 and a protein stability index [2] of 2.67 ± 0.38.
For CILVEMHTGEPLFSGSNEVDQMNR [DYRK1B], the protein stability index [1] was 2.58 ± 0.07 and the protein stability index [2] was 2.58 ± 0.22.
For LQRLKEQQFVIAGVLVEDSNNHHL [ZBED1], the protein stability index [1] was 2.83 ± 0.085 and the protein stability index [2] was 3.02 ± 0.27.
Work on KNIFGTPEFVAPEIVNYEPLGLEA [DAPK3] yielded a protein stability index [1] of 3.95 ± 0.23 and a protein stability index [2] of 4.26 ± 0.51.
In the case of CLRRCKRTLPAFQVPYPPRQLLRD [P3H4], the protein stability index [1] is reported as 2.16 ± 0.24 and the protein stability index [2] is reported as 2.27 ± 0.24.
STFIRRYSRYLNEKAFSYRQMAFD [SNAP91] gave a protein stability index [1] of 2.11 ± 0.24 and a protein stability index [2] of 2.22 ± 0.28.
Sequence HFQPNSPASDLEAALEAAGEGLNV [NANOGP8] has a protein stability index [1] of 5.05 ± 0.26 and a protein stability index [2] of 5.24 ± 0.28.
With FELDLGKKVLNLLKGAFPARLKKV [PTPN9] the protein stability index [1] was 2.84 ± 1.1 and the protein stability index [2] was 2.34 ± 0.59.
With TQSNRTSRLIGKKMNRSVSLTIY [WEE1] the protein stability index (treatment: DMSO, c terminus: native) was 2.19 ± 0.14 and the protein stability index (treatment: MLN4924 1 uM, 8 h, c terminus: native) was 2.27 ± 0.15.
Sequence GGLLTGNEKITMQNLNDRLASYLE [KRT13] has a protein stability index [1] of 3.19 ± 0.15 and a protein stability index [2] of 3.24 ± 0.13.
Sequence SEWQRKLEAAEALLTLRNSAQAPP [DMRTC1] has a protein stability index [1] of 4.45 ± 0.55 and a protein stability index [2] of 4.63 ± 0.26.
PGYLVGRNNANGVDLNRNFPDLNT [CPN1] showed a protein stability index [1] of 3.73 ± 0.36 and a protein stability index [2] of 3.67 ± 0.48.
Work on QAFLDELESSDLPVALLLAQHKDR [MNAT1] yielded a protein stability index [1] of 3.53 ± 0.13 and a protein stability index [2] of 3.49 ± 0.21.
Work on TLTREQTERLSHQITSRVVSAATQ [RTN2] yielded a protein stability index [1] of 3.68 ± 0.19 and a protein stability index [2] of 3.75 ± 0.13.
Sequence VNFMYLQSLLQPKSSSVDSELTSL [SMG5] has a protein stability index [1] of 2.21 ± 0.39 and a protein stability index [2] of 2.15 ± 0.39.
Sequence LEEAKKMEMAKFRYILPVYGICRE [RIPK4] has a protein stability index [1] of 2.26 ± 0.23 and a protein stability index [2] of 2.33 ± 0.31.
SSQERKFMEERELLGQDEETAMRK [RSPH3] gave a protein stability index [1] of 5.47 ± 0.38 and a protein stability index [2] of 5.51 ± 0.3.
Work on PPYLPLAVPEDLADRLVRVHGDPA [FUT8] yielded a protein stability index [1] of 4.22 ± 0.12 and a protein stability index [2] of 4.31 ± 0.28.
With SSCVKILLDHNANIDIQNGFLLRY [ASB7] the protein stability index [1] was 2.47 ± 0.43 and the protein stability index [2] was 2.5 ± 0.24.
SPSHSPEHRRTARRTPPGQQRPHP [ELOA2] showed a protein stability index [1] of 5.06 ± 0.18 and a protein stability index [2] of 5.06 ± 0.22.
In the case of SSSQKEESPSTLQVLPDSESLPRS [MAGEA10], the protein stability index [1] is reported as 5.36 ± 0.23 and the protein stability index [2] is reported as 5.4 ± 0.16.
For LSEEEKEELKAELVQLEDEITTLR [TPD52L1], the protein stability index [1] was 5.03 ± 0.17 and the protein stability index [2] was 5.2 ± 0.19.
TDRPLLSTLEESVVRICCIRSFGH [SMG5] showed a protein stability index [1] of 2.36 ± 0.24 and a protein stability index [2] of 2.08 ± 0.12.
In the case of IAVLPRYVEIRTFEPRLLVQSIEL [VPS39], the protein stability index [1] is reported as 2.97 ± 0.57 and the protein stability index [2] is reported as 2.88 ± 0.38.
For TPPEEQQEAEEPKARVLRSKSLCH [CDC25B], the protein stability index [1] was 5.37 ± 0.26 and the protein stability index [2] was 5.37 ± 0.24.
PVLRFDALWQVLARDCFATGRHYW [TRIM14] gave a protein stability index [1] of 3.5 ± 0.53 and a protein stability index [2] of 3.21 ± 0.88.
With EEPVPRERDRDPCGGSGGGGGGGG [LURAP1L] the protein stability index [1] was 5.69 ± 0.29 and the protein stability index [2] was 5.67 ± 0.22.
TKPLAIHPCGDKNCPAHWLAQDWE [ADAMTSL2] showed a protein stability index [1] of 2.73 ± 0.79 and a protein stability index [2] of 2.73 ± 0.12.
YPRYPDIHDLDLTLLNPRMIVDVT [CLCN6] gave a protein stability index [1] of 2.48 ± 0.14 and a protein stability index [2] of 2.54 ± 0.22.
PSSQSSSGGGRDSSSSILRWLPEK [ELOA2] gave a protein stability index [1] of 4.15 ± 0.12 and a protein stability index [2] of 4.25 ± 0.1.
With HKRAIMPYGVYKKQQKDPSEEAAV [ATE1] the protein stability index [1] was 4.3 ± 0.32 and the protein stability index [2] was 4.44 ± 0.11.
DWGRTALHYAAASDMDRNKTILGN [ANKRD44] showed a protein stability index [1] of 3.35 ± 0.32 and a protein stability index [2] of 3.35 ± 0.17.
In the case of LAEIRSDLERQNQEYQVLLDVRAR [KRT33B], the protein stability index [1] is reported as 3.84 ± 0.25 and the protein stability index [2] is reported as 4.02 ± 0.32.
Work on IPVAMEHQPPYIIAVLPRYVEIRT [VPS39] yielded a protein stability index [1] of 2.6 ± 0.48 and a protein stability index [2] of 2.44 ± 0.46.
LREIAFTRQLHEKTSQLSYYYMGF [ATE1] showed a protein stability index [1] of 2.31 ± 0.35 and a protein stability index [2] of 2.34 ± 0.24.
VVLCFSIANPNSLNHVKSMWYPEI [RHOBTB1] gave a protein stability index [1] of 4.05 ± 0.91 and a protein stability index [2] of 3.6 ± 0.21.
In the case of FYHYFEDKENIYILLEYCSRRSMA [PLK2], the protein stability index [1] is reported as 2.34 ± 0.53 and the protein stability index [2] is reported as 2.21 ± 0.27.
Sequence SSRIEQGEWGGRHPSWPWTRCLRM has a protein stability index [1] of 2.5 ± 0.19 and a protein stability index [2] of 2.67 ± 0.38.
Sequence YPWDENHCKEKRKTSLLDQLTNTS [NETO1] has a protein stability index [1] of 3.94 ± 0.21 and a protein stability index [2] of 4.07 ± 0.25.
Work on HNCVDLMQAAEVFSQKHFPEVVQH [KLHL12] yielded a protein stability index [1] of 3.17 ± 0.16 and a protein stability index [2] of 3.14 ± 0.38.
For DGLFDNMPDYMILQELKKLKNSNY [PPTC7], the protein stability index [1] was 2.57 ± 0.3 and the protein stability index [2] was 2.85 ± 0.64.
With TEAGGVLMDVTGGPFDLMSRRVIA [IMPA1] the protein stability index [1] was 3.22 ± 0.61 and the protein stability index [2] was 3.37 ± 0.42.
LVNDDDEEADDTRYTQGTGGDEVD [ZC3H15] gave a protein stability index [1] of 5.43 ± 0.31 and a protein stability index [2] of 5.67 ± 0.23.
Sequence HFRPRFHPLPTVIIVNLLWFIHLV [TMEM192] has a protein stability index [1] of 2.63 ± 0.48 and a protein stability index [2] of 2.82 ± 0.79.
Sequence NCEQLCVNVPGSFVCQCYSGYALA [MATN2] has a protein stability index [1] of 2.16 ± 0.55 and a protein stability index [2] of 2.34 ± 0.53.
With ACGGLDNKCSVYPLTFDKNENMAA [GNB5] the protein stability index [1] was 3.69 ± 0.093 and the protein stability index [2] was 3.43 ± 0.41.
FRENGRNCKRERDARVKRKLRGPE [TBX6] gave a protein stability index [1] of 3.92 ± 0.3 and a protein stability index [2] of 4.05 ± 0.22.
TFIPLEPLPQIPNLPFWVKEKANS [SPATS1] gave a protein stability index [1] of 2.81 ± 0.19 and a protein stability index [2] of 3.04 ± 0.15.
For DYLCISFEYSTIKCRDLSALMHEL [BTBD10], the protein stability index [1] was 2.5 ± 1.6 and the protein stability index [2] was 2.73 ± 1.
